Source: PMC6405930, “Conservation of the Amyloid Interactome Across Diverse Fibrillar Structures” (Scientific Reports, 2019)

B1: Ig μ chain C region: plasma protein bound to fibrils (protein, UniProt P01871 1-474, looked up)
Immunoglobulin heavy constant …: GSASAPTLFPLVSCENSPSDTSSVAVGCLAQDFLPDSITFSWKYKNNSDISSTRGFPSVLRGGKYAATSQVLLPSKDVMQGTDEHVVCKVQHPNGNKEKNVPLPVIAELPPKVSVFVPPRDGFFGNPRKSKLICQATGFSPRQIQVSWLREGKQVGSGVTTDQVQAEAKESGPTTYKVTSTLTIKESDWLGQSMFTCRVDHRGLTFQQNASSMCVPDQDTAIRVFAIPPSFASIFLTKSTKLTCLVTDLTTYDSVTISWTRQNGEAVKTHTNISESHPNATFSAVGEASICEDDWNSGERFTCTVTHTDLPSPLKQTISRPKGVALHRPDVYLLPPAREQLNLRESATITCLVTGFSPADVFVQWMQRGQPLSPEKYVTSAPMPEPQAPGRYFAHSILTVSEEEWNTGETYTCVVAHEALPNRVTERTVDKSTEGEVSADEEGFENLWATASTFIVLFLLSLFYSTTVTLFKVK
B2: C4b-binding protein β chain: plasma protein bound to fibrils (protein, UniProt P20851 18-252, looked up)
C4b-binding protein beta chain: SDAEHCPELPPVDNSIFVAKEVEGQILGTYVCIKGYHLVGKKTLFCNASKEWDNTTTECRLGHCPDPVLVNGEFSSSGPVNVSDKITFMCNDHYILKGSNRSQCLEDHTWAPPFPICKSRDCDPPGNPVHGYFEGNNFTLGSTISYYCEDRYYLVGVQEQQCVDGEWSSALPVCKLIQEAPKPECEKALLAFQESKNLCEAMENFMQQLKESGMTMEELKYSLELKKAELKAKLL
B3: Ig γ -2 chain C region: plasma/CSF protein bound to fibrils (protein, UniProt P01859 1-395, looked up)
Immunoglobulin heavy constant …: ASTKGPSVFPLAPCSRSTSESTAALGCLVKDYFPEPVTVSWNSGALTSGVHTFPAVLQSSGLYSLSSVVTVPSSNFGTQTYTCNVDHKPSNTKVDKTVERKCCVECPPCPAPPVAGPSVFLFPPKPKDTLMISRTPEVTCVVVDVSHEDPEVQFNWYVDGVEVHNAKTKPREEQFNSTFRVVSVLTVVHQDWLNGKEYKCKVSNKGLPAPIEKTISKTKGQPREPQVYTLPPSREEMTKNQVSLTCLVKGFYPSDISVEWESNGQPENNYKTTPPMLDSDGSFFLYSKLTVDKSRWQQGNVFSCSVMHEALHNHYTQKSLSLSPELQLEESCAEAQDGELDGLWTTITIFITLFLLSVCYSATITFFKVKWIFSSVVDLKQTIVPDYRNMIRQGA
B4: C4b-binding protein α chain: plasma protein bound to fibrils (protein, UniProt P04003 49-597, looked up)
C4b-binding protein alpha …: NCGPPPTLSFAAPMDITLTETRFKTGTTLKYTCLPGYVRSHSTQTLTCNSDGEWVYNTFCIYKRCRHPGELRNGQVEIKTDLSFGSQIEFSCSEGFFLIGSTTSRCEVQDRGVGWSHPLPQCEIVKCKPPPDIRNGRHSGEENFYAYGFSVTYSCDPRFSLLGHASISCTVENETIGVWRPSPPTCEKITCRKPDVSHGEMVSGFGPIYNYKDTIVFKCQKGFVLRGSSVIHCDADSKWNPSPPACEPNSCINLPDIPHASWETYPRPTKEDVYVVGTVLRYRCHPGYKPTTDEPTTVICQKNLRWTPYQGCEALCCPEPKLNNGEITQHRKSRPANHCVYFYGDEISFSCHETSRFSAICQGDGTWSPRTPSCGDICNFPPKIAHGHYKQSSSYSFFKEEIIYECDKGYILVGQAKLSCSYSHWSAPAPQCKALCRKPELVNGRLSVDKDQYVEPENVTIQCDSGYGVVGPQSITCSGNRTWYPEVPKCEWETPEGCEQVLTGKRLMQCLPNPEDVKMALEVYKLSLEIEQLELQRDSARQSTLDKEL

Experiments:
Ab1 fibrils [1] = tested on: T1, Ab1 fibrils; test: Fibril incubation with plasma, quantitative MS/MS of bound proteins; assay type: binding, human; settings: 50:1 w/w plasma protein:fibril
T1 construct: Synthetic amyloid β peptide 1–40 was purchased from Caslo Aps (Lyngby, Denmark); purchased Caslo Aps (Lyngby, Denmark); host or cells: synthetic peptide
Method: (§1) Plasma and CSF solutions were centrifuged (40,000 g, 20 min) to remove any aggregates. The protein concentration was determined using 280 nm absorbance assuming 1 Abs = 1 mg/mL. Samples with fibril material (20 μg), plasma (500 μg) or CSF (40 μg) proteins were prepared in 200 μL PBS buffer with 5 mM EDTA. Control samples (without fibril material) were prepared similarly. All samples were incubated at room temperature for one hour under gentle agitation. Fibrils and fibril-bound proteins were pelleted by centrifugation at 17,000 g for 30 minutes. The supernatant (175 μL) was removed and the aggregate was re-suspended in 175 μL PBS and pelleted again before further preparation for gel analysis and spin-filter assisted digest for quantitative MS/MS.
(§2) The fibril-protein pellets were transferred to spin-filters (0.22 μm), washed twice in PBS (100 μL) and once in 1 M NaCl (100 μL). The fibrils and fibril-bound proteins were dissolved by one-hour incubation in 100 μL 6 M guanidinium chloride followed by elution from the spin-filter. The eluted proteins were loaded onto a 3 kDa MWCO filter unit for filter-assisted unfolding, reduction, alkylation, and trypsin digestion. In brief, samples were washed twice in 8 M urea, once in 8 M urea with 50 mM DTT, once in 8 M urea with 50 mM iodoaceteamide, and twice in 8 M Urea. The filter units were dried by centrifugation (14,000 g in 30 minutes) after every addition. Trypsin digestion was carried out with 0.25 μg sequencing grade trypsin from Sigma Aldrich in 50 mM ammonium bicarbonate overnight at 37 °C. The tryptic peptides were collected by centrifugation, acidified with TFA (0.1%) and micro-purified using POROS R2 column material (Applied Biosystems) packed in P200 pipette tips (Sarstedt).
(§3) LC-MS/MS analyses were performed on an EASY-nLC II system (Thermo Fisher Scientific) connected to a TripleTOF 5600+ mass spectrometer (Sciex) equipped with a NanoSpray III source (Sciex) and operated under Analyst TF 1.6.0 control.
(§4) The micro-purified tryptic peptides were dissolved in 0.1% formic acid, injected and trapped on an in-house packed trap column (2 cm × 100 μm I.D) with RP ReproSil-Pur C18-AQ 3 μm resin (Dr. Maisch GmbH). Peptides were eluted from the trap column and separated on a 15 cm analytical column (75 μm i.d.) packed in-house in a pulled emitter with RP ReproSil-Pur C18-AQ 3 μm resin (Dr. Maisch GmbH). Elution from the analytical column was performed with a linear gradient from 5% to 35% phase B (90% acetonitrile with 0.1% formic acid) over 20 min for protein identification and 50 min for quantitative analysis, respectively.
(§5) All samples were analysed three times, yielding nine MS/MS experiments for each fibril for both plasma and CSF. For the area-based extracted ion chromatogram (XIC) quantification, the acquisition method was set up as an information-dependent acquisition (IDA) experiment collecting up to 25 MS/MS spectra in each 1.6 sec cycle using an exclusion window of 6 sec.
(§6) XIC quantification was based on the average ion intensity of the three most abundant peptides for each protein. Only proteins quantified in at least four out of nine MS/MS experiments per fibril were included in the quantification. The total ion scores were visualized after grouping the proteins according to function (Figure S11).
(§7) For each MS/MS experiment, the ion intensities of the individual proteins were normalized to the total ion intensity of that MS/MS experiment to achieve a relative protein composition. The contribution of each protein was averaged over all nine MS/MS experiments (Tables 1 and 2).

Ab2 fibrils [2] = tested on: T2, Ab2 fibrils; test: as above; assay type: binding, human; settings: 50:1 w/w plasma protein:fibril
T2 construct: Two structurally distinct fibrils of the Aβ(1–40) peptide associated with AD
Method: as §1, with “Samples with fibril material (20 μg), plasma (500 μg) or CSF (40 μg) proteins were prepared in 200 μL PBS buffer with 5 mM EDTA.” left out
as §2, §3, §4, §5, §6, §7

glucagon fibrils [3] = biological target: T3, glucagon fibrils (Homo sapiens, UniProt P01275); test: as above; assay type: binding; settings: 50:1 w/w plasma protein:fibril
T3 construct: fibrils of the peptide hormone glucagon
Method: as §1, with “Samples with fibril material (20 μg), plasma (500 μg) or CSF (40 μg) proteins were prepared in 200 μL PBS buffer with 5 mM EDTA.” left out
as §2, §3, §4, §5, §6, §7

C-36 fibrils [4] = biological target: T4, C-36 fibrils (Homo sapiens, UniProt P01009); test: as above; assay type: binding; settings: 50:1 w/w plasma protein:fibril
T4 construct: the 36 residue C-terminal fragment of α1-antitrypsin (C-36)
Method: as §1, with “Samples with fibril material (20 μg), plasma (500 μg) or CSF (40 μg) proteins were prepared in 200 μL PBS buffer with 5 mM EDTA.” left out
as §2, §3, §4, §5, §6, §7

αSN fibrils = αSN fibrils (Homo sapiens, UniProt P37840); test: as above; assay type: binding; settings: 50:1 w/w plasma protein:fibril
Method: as §1, with “Samples with fibril material (20 μg), plasma (500 μg) or CSF (40 μg) proteins were prepared in 200 μL PBS buffer with 5 mM EDTA.” left out
as §2, §3, §4, §5, §6, §7

FAS4-AD aggregates [5] = tested on: T5, FAS4-AD aggregates; test: as above; assay type: binding, human; design: key to Identification status of plasma protein bound: FAS4-AD: *: Identified, but not quantified; —: Not identified in any of the samples; settings: for Relative composition of plasma proteins bound: FAS4-AD: 50:1 w/w plasma protein:fibril
T5 construct: aggregates of a mutated version of the FAS1-4 domain of TGFBIp
Method: as §1, with “Samples with fibril material (20 μg), plasma (500 μg) or CSF (40 μg) proteins were prepared in 200 μL PBS buffer with 5 mM EDTA.” left out
as §2, §3, §4, §5, §6, §7

Ab1 fibrils [6] = tested on: T1, Ab1 fibrils; test: Fibril incubation with CSF, quantitative MS/MS of bound proteins; assay type: binding, human; settings: 4:1 w/w CSF protein:fibril
Method: as §1, with “Samples with fibril material (20 μg), plasma (500 μg) or CSF (40 μg) proteins were prepared in 200 μL PBS buffer with 5 mM EDTA.” left out
as §2, §3, §4, §5, §6, §7

Ab2 fibrils [7] = tested on: T2, Ab2 fibrils; test: as above; assay type: binding, human; settings: 4:1 w/w CSF protein:fibril
Method: as §1, with “Samples with fibril material (20 μg), plasma (500 μg) or CSF (40 μg) proteins were prepared in 200 μL PBS buffer with 5 mM EDTA.” left out
as §2, §3, §4, §5, §6, §7

glucagon fibrils [8] = biological target: T3, glucagon fibrils; test: as above; assay type: binding; settings: 4:1 w/w CSF protein:fibril
Method: as §1, with “Samples with fibril material (20 μg), plasma (500 μg) or CSF (40 μg) proteins were prepared in 200 μL PBS buffer with 5 mM EDTA.” left out
as §2, §3, §4, §5, §6, §7

C-36 fibrils [9] = biological target: T4, C-36 fibrils; test: as above; assay type: binding; settings: 4:1 w/w CSF protein:fibril
Method: as §1, with “Samples with fibril material (20 μg), plasma (500 μg) or CSF (40 μg) proteins were prepared in 200 μL PBS buffer with 5 mM EDTA.” left out
as §2, §3, §4, §5, §6, §7

FAS4-AD aggregates [10] = tested on: T5, FAS4-AD aggregates; test: as above; assay type: binding, human; design: key to Identification status of CSF protein bound: FAS4-AD: *: Identified, but not quantified; —: Not identified in any of the samples; settings: symbol cells
Method: as §1, with “Samples with fibril material (20 μg), plasma (500 μg) or CSF (40 μg) proteins were prepared in 200 μL PBS buffer with 5 mM EDTA.” left out
as §2, §3, §4, §5, §6, §7

T3 sequence (P01275 53-81 limits assumed): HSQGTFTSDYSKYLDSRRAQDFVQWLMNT
T4 sequence (P01009 383-418 limits assumed): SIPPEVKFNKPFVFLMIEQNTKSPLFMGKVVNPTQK

Row | Molecule | Relative composition of plasma proteins bound: Ab1 (Ab1 fibrils [1]) | Relative composition of plasma proteins bound: Ab2 (Ab2 fibrils [2]) | Relative composition of plasma proteins bound: Glucagon (glucagon fibrils [3]) | Relative composition of plasma proteins bound: C-36 (C-36 fibrils [4]) | Relative composition of plasma proteins bound: αSN (αSN fibrils) | Relative composition of plasma proteins bound: FAS4-AD (FAS4-AD aggregates [5]) | Identification status of plasma protein bound: FAS4-AD (FAS4-AD aggregates [5]; symbol cells) | Relative composition of CSF proteins bound: Ab1 (Ab1 fibrils [6]) | Relative composition of CSF proteins bound: Ab2 (Ab2 fibrils [7]) | Relative composition of CSF proteins bound: Glucagon (glucagon fibrils [8]) | Relative composition of CSF proteins bound: C-36 (C-36 fibrils [9]) | Identification status of CSF protein bound: FAS4-AD (FAS4-AD aggregates [10])
1 | B1 | 0.6 ± 0.0 % of total protein | 0.7 ± 0.2 % of total protein | 0.8 ± 0.1 % of total protein | 0.4 ± 0.1 % of total protein | 0.5 ± 0.2 % of total protein | 2.6 ± 1.5 % of total protein | – | – | – | – | – | –
2 | B2 | 0.9 ± 0.1 % of total protein | 1.3 ± 0.3 % of total protein | 0.5 ± 0.1 % of total protein | 0.7 ± 0.1 % of total protein | 1.3 ± 0.4 % of total protein | – | * | – | – | – | – | –
3 | B3 | 0.9 ± 0.1 % of total protein | 0.9 ± 0.1 % of total protein | 0.9 ± 0.1 % of total protein | 1.2 ± 0.2 % of total protein | 1.2 ± 0.8 % of total protein | – | – | 1.7 ± 0.2 % of total protein | 2.0 ± 0.3 % of total protein | 1.1 ± 0.3 % of total protein | 1.0 ± 0.3 % of total protein | *
4 | B4 | 6.1 ± 0.2 % of total protein | 9.9 ± 0.5 % of total protein | 3.0 ± 0.1 % of total protein | 5.5 ± 0.3 % of total protein | 7.4 ± 2.5 % of total protein | 2.7 ± 0.9 % of total protein | – | – | – | – | – | –
